Assay results as given in article PMC3971956.

Columns and labels:
Test in all cases: SAXS
AB = AB (human, UniProt P09874 1-232)
ABC = ABC (human, UniProt P09874 1-373)
PARP-1 full-length = PARP-1 full-length (human, UniProt P09874 1-1014)

Measured: binding result

Sequence of ABC (P09874 1-373): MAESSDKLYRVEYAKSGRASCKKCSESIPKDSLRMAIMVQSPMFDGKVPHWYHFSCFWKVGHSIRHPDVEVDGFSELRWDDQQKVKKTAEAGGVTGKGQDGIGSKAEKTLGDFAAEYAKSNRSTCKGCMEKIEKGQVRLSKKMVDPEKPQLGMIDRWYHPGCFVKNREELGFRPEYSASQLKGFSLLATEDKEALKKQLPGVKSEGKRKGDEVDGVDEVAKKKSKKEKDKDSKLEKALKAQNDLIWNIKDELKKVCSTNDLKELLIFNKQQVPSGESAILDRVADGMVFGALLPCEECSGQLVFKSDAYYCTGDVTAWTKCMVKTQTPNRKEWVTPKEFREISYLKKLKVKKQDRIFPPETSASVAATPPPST
Sequence of PARP-1 full-length (P09874 whole entry): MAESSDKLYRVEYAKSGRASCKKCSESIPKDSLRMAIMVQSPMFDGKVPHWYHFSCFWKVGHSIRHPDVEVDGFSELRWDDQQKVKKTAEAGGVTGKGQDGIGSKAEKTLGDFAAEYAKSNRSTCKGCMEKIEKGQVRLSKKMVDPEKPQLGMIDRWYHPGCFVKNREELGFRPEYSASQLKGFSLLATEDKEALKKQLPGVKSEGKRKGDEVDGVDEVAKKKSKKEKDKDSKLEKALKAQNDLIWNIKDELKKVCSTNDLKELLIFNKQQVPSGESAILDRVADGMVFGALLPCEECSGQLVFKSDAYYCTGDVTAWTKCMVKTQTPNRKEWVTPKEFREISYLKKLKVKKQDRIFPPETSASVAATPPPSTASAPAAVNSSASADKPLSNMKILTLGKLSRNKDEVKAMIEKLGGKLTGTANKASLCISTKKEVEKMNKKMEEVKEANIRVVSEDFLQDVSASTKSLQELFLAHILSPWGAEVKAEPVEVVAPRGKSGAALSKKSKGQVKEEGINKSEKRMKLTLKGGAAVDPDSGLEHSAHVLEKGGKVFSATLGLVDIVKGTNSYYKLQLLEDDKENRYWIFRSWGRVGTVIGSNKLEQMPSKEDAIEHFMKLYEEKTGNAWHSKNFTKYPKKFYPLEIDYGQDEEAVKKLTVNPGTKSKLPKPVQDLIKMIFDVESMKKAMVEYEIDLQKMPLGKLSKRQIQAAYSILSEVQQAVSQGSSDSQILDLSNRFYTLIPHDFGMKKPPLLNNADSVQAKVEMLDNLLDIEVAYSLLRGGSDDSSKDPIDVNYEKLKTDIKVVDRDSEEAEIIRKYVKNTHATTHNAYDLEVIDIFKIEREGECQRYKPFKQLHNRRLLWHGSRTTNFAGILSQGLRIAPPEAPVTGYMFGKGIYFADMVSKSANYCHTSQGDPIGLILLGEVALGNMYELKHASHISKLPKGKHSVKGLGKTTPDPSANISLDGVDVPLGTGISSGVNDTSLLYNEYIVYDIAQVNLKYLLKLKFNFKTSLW
Sequence of AB (P09874 1-232): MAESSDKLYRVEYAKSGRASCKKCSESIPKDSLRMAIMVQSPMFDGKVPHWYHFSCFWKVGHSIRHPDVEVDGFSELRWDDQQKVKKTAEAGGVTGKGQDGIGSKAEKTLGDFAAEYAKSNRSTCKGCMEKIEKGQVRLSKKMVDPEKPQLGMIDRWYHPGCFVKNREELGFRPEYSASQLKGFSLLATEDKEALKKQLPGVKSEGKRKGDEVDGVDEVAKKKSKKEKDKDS

B1: 8-mer DNA (dsDNA)
DNA 1: GGAATTCC
DNA 2: GGAATTCC
binds: AB | ABC | PARP-1 full-length
